# Source: US11524046B2, “Biofilm prevention, disruption and treatment with bacteriophage lysin” (priority 2012, dated 2022)
# Where two headings read alike, the source gives them in different places.
# How the values were obtained:
# Streptococcus mutans = experiment: MIC of PlySs2, susceptible and non-susceptible bacterial strains; format: cell-based; conditions: Streptococcus mutans (12)
# S. aureus strains = experiment: PlySs2 and antibiotic MIC, broth microdilution, 80% growth inhibition (CLSI M07-A9); format: cell-based
# staphylococci = experiment: PlySs2 stability at 37° C. in Lactated Ringer's solution, residual lytic activity; format: physicochemical; conditions: 1X MIC
# Procedure: To determine the stability of PlySs2 in a simulated catheter setting, PlySs2 was incubated at various concentrations in Lactated Ringer's solution at 37° C. After 7 days, the lytic activity of PlySs2 was assessed by adding 1×10^5 staphylococci, incubating for 4 hours, then treating with proteinase K to remove residual PlySs2, and serial dilution and plating for viability. The resulting CFU value for each condition was divided by 1×10^5 to determine the % Loss of Activity.
# Pseudomonas aeruginosa = Pseudomonas aeruginosa (5)
# [1] = system: MRSA strains CFS 553 (ATCC 43300) and CFS 992 (JMI 5381); experiment: MIC of PlySs2 against additional MRSA strains; format: cell-based, S. aureus
# Streptococcus pneumoniae = experiment: MIC of PlySs2, susceptible and non-susceptible bacterial strains; format: cell-based; conditions: Streptococcus pneumoniae (26)
# [2] = system: biofilms of MRSA strain CFS 218 (MRSA strain ATCC BAA-42); experiment: Scanning electron microscopy of treated catheter biofilms; format: cell-based, S. aureus; conditions: 1×MIC (32 ug/ml)
# Excerpt: Biofilms were generated on catheter tubing (PVC with DEHP as plasticizer) as above and evaluated for PlySs2 sensitivity by scanning electron microscopy (SEM). […] After fixation on the catheter surface, samples were further processed and analyzed by scanning electron microscopy at 5000× magnification (FIGS. 21A-21C). Treatment with buffer alone (ie, Lactated Ringer's Solution alone) is included as a control.
# [3] = system: Staphylococcus epidermidis biofilms; experiment: Biofilm eradicating concentration (BEC), 24 h biofilms in 24 well plates, crystal violet; format: cell-based
# [4] = system: MRSA biofilms grown on catheters (strain ATCC BAA-42); experiment: Catheter biofilm eradication in vitro, methylene blue staining
# [5] = system: Streptococcus agalactiae, Group B; experiment: MIC of PlySs2, susceptible and non-susceptible bacterial strains; format: cell-based; conditions: Group B (51)
# [6] = system: Staphylococcus epidermidis strains; format: cell-based
# Acinetobacter baumannii = Acinetobacter baumannii (8)
# Enterococcus faecium = Enterococcus faecium (5)
# Bacillus cereus = Bacillus cereus (10)
# [7] = system: Streptococcus pyogenes, Group A; experiment: MIC of PlySs2, susceptible and non-susceptible bacterial strains; format: cell-based; conditions: Group A (54)
# [8] = system: MRSA strains CFS 553 (ATCC 43300) and CFS 992 (JMI 5381) biofilms; experiment: Catheter biofilm titration of additional MRSA strains, methylene blue staining; format: cell-based, S. aureus; conditions: 4 hours
# Lactococcus spp. = conditions: N 3
# [9] = system: MRSA biofilms grown on catheters (strain ATCC BAA-42); experiment: Catheter biofilm residual CFU, BacTiter-Glo luciferase estimate
# [10] = system: Antibiotic-Resistant Staphylococcus aureus; experiment: MIC of PlySs2 against antibiotic-resistant S. aureus; format: cell-based; design: unit not given here
# [11] = system: methicillin resistant S. aureus MRSA strain ATCC BAA-42; experiment: MIC by broth microdilution (CLSI M07-A9) against strain ATCC BAA-42; format: cell-based
# [12] = CFS 533, NRS6, (VISE), bloodstream USA
molecule,measurement,setting,value
"PlySs2: bacteriophage lysin derived from Streptococcus suis, amino acid sequence of FIG. 5 / SEQ ID NO: 1; CHAP and SH3 domains (protein, listed as Streptococcus suis) MTTVNEALNNVRAQVGSGVSVGNGECYALASWYERMISPDATVGLGAGVGWVSGAIGDTISAKNIGSSYNWQANGWTVSTSGPFKAGQIVTLGATPGNPYGHVVIVEAVDGDRLTILEQNYGGKRYPVRNYYSAASYRQQVVHYITPPGTVAQSAPNLAGSRSYRETGTMTVTVDALNVRRAPNTSGEIVAVYKRGESFDYDTVIIDVNGYVWVSYIGGSGKRNYVATGATKDGKRFGNAWGTFK",MIC 50%,Streptococcus mutans,64 µg/mL
same,MIC 90%,Streptococcus mutans,256 µg/mL
same,MIC Range,Streptococcus mutans,2 to 256 µg/mL
same,MIC90,S. aureus strains; DRSA (n = 8),0.15 µM
same,MIC90,S. aureus strains; LRSA (n = 5),0.08 µM
same,MIC90,S. aureus strains; MRSA (n = 45),0.15 µM
same,MIC90,S. aureus strains; MSSA (n-28),0.15 µM
same,MIC90,S. aureus strains; VISA (n = 10),1.2 µM
same,MIC90,S. aureus strains; VRSA (n = 14),0.08 µM
same,% LOSS OF ACTIVITY (7 days),staphylococci,58.3%
same,MIC 50%,Pseudomonas aeruginosa,>512 µg/mL
same,MIC 90%,Pseudomonas aeruginosa,>512 µg/mL
same,MIC Range,Pseudomonas aeruginosa,>512 µg/mL
same,1×MIC,[1]; strain ATCC 4330,16 µg/mL
same,1×MIC,[1]; strain JMI 5381,32 µg/mL
same,MIC 50%,Streptococcus pneumoniae,16 µg/mL
same,MIC 90%,Streptococcus pneumoniae,64 µg/mL
same,MIC Range,Streptococcus pneumoniae,1 to 64 µg/mL
same,biofilm on catheter surface by SEM,[2]; 30 seconds,rapidly diminishes
same,biofilm on catheter surface by SEM,[2]; 15 minutes,almost completely removes
same,BEC,"[3]; CFS 166, Environmental lab contaiminant",5.12 µg/mL
same,BEC,"[3]; CFS 224, HER 1292",5.12 µg/mL
same,BEC,"[3]; CFS 225, HPH-6",0.512 µg/mL
same,BEC,"[3]; CFS 226, HPH-5",5.12 µg/mL
same,BEC,"[3]; CFS 227, HCN-4",5.12 µg/mL
same,BEC,"[3]; CFS 272, NRS53 (VISE)",0.215 µg/mL
same,BEC,"[3]; CFS 280, NRS101 (MRSE)",0.512 µg/mL
same,BEC,"[3]; CFS 300, NRS8, (VISE)",0.512 µg/mL
same,BEC,"[3]; CFS 313, NRS34 (VISE)",0.512 µg/mL
same,BEC,[3]; [12],0.512 µg/mL
same,BEC,"[3]; CFS 552, ATCC #12228 (MSSE)",51.2 µg/mL
same,BEC,"[3]; CFS 769, NRS101",0.512 µg/mL
same,BEC,"[3]; CFS 1152, ATCC-14990",5.12 µg/mL
same,BEC,"[3]; CFS 1154, ATCC-49461",5.12 µg/mL
same,BEC,"[3]; CFS 1161, NRS850-VCU028",5.12 µg/mL
same,BEC,"[3]; CFS 1164, NRS853-VCU041",5.12 µg/mL
same,BEC,"[3]; CFS 1165, NRS854-VCU045",5.12 µg/mL
same,BEC,"[3]; CFS 1168, NRS857-VCU065",0.512 µg/mL
same,BEC,"[3]; CFS 1174, NRS864-VCU112",51.2 µg/mL
same,BEC,"[3]; CFS 1184, NRS874-VCU126",5.12 µg/mL
same,BEC,"[3]; CFS 1185, NRS875-VCU127",5.12 µg/mL
same,BEC,"[3]; CFS 1186, NRS876-VCU128",0.512 µg/mL
same,time of full removal of stainable biofilm,[4]; 1×MIC (32 ug/mL),≤ 60 min
same,biofilm clearance from the catheter,"[4]; 1×MIC, 24 hours",completely cleared
same,MIC 50%,[5],8 µg/mL
same,MIC 90%,[5],16 µg/mL
same,MIC Range,[5],1 to 64 µg/mL
same,MIC,"[6]; CFS 224, HER 1292",512 µg/mL
same,MIC,"[6]; CFS 225, HPH-6",128 µg/mL
same,MIC,"[6]; CFS 226, HPH-5",512 µg/mL
same,MIC,"[6]; CFS 227, HCN-4",>512 µg/mL
same,MIC,"[6]; CFS 272, NRS53 (VISE)",128 µg/mL
same,MIC,"[6]; CFS 280, NRS101 (MRSE)",128 µg/mL
same,MIC,"[6]; CFS 300, NRS8, (VISE)",32 µg/mL
same,MIC,"[6]; CFS 313, NRS34 (VISE)",8 µg/mL
same,MIC,[6]; [12],>512 µg/mL
same,MIC,"[6]; CFS 769, NRS101",64 µg/mL
same,MIC 50%,Acinetobacter baumannii,>512 µg/mL
same,MIC 90%,Acinetobacter baumannii,>512 µg/mL
same,MIC Range,Acinetobacter baumannii,>512 µg/mL
same,MIC 50%,Enterococcus faecium,>512 µg/mL
same,MIC 90%,Enterococcus faecium,>512 µg/mL
same,MIC 50%,Bacillus cereus,>512 µg/mL
same,MIC 90%,Bacillus cereus,>512 µg/mL
same,MIC Range,Bacillus cereus,>512 µg/mL
same,MIC 50%,[7],2 µg/mL
same,MIC 90%,[7],8 µg/mL
same,MIC Range,[7],0.5 to 8 µg/mL
same,catheter biofilm eradication,"[8]; CFS 553 (ATCC 43300), 0.01×MIC",significantly reduced
same,catheter biofilm eradication,"[8]; CFS 553 (ATCC 43300), 10×MIC, 1×MIC, and 0.1×MIC",eradicated and fully dispersed
same,catheter biofilm eradication,"[8]; CFS 992 (JMI 5381), 0.01×MIC",significantly reduced
same,catheter biofilm eradication,"[8]; CFS 992 (JMI 5381), 10×MIC, 1×MIC, and 0.1×MIC",eradicated and fully dispersed
same,CF-301 MIC,Lactococcus spp.,>512 µg/mL
same,CFUs remaining in catheter biofilm,"[9]; 1×MIC, 24 hours, 100 CFU/ml is the limit of detection",100 CFU/ml
same,lowest concentration active at removing biofilm bacteria,"[9]; titration, CFU",0.01 ×MIC
same,MIC 50%,[10]; Daptomycin-resistant (8),2
same,MIC 90%,[10]; Daptomycin-resistant (8),4
same,MIC Range,[10]; Daptomycin-resistant (8),2-4
same,MIC 50%,[10]; Linezolid-resistant (5),2
same,MIC 90%,[10]; Linezolid-resistant (5),2
same,MIC Range,[10]; Linezolid-resistant (5),2-4
same,MIC 50%,[10]; Vancomycin-intermediate (31),8
same,MIC 90%,[10]; Vancomycin-intermediate (31),32
same,MIC Range,[10]; Vancomycin-intermediate (31),1-64
same,MIC 50%,[10]; Vancomycin-resistant (14),2
same,MIC 90%,[10]; Vancomycin-resistant (14),4
same,MIC Range,[10]; Vancomycin-resistant (14),1-4
same,MIC value,"[11]; ATCC BAA-42, in the absence of reducing agent",32 µg/mL
same,Minimally inhibitory concentration (MIC),"[11]; ATCC BAA-42, in the presence of reducing agent (such as DTT or BMS)",16 µg/mL
